Target: T1, receptor-binding domain (RBD) of SARS-CoV-2 spike protein (SARS-CoV-2, UniProt P0DTC2)
T1 construct: source: bought: GenScript
Assay: SPR; BIAcore 3000; […], flow 15 μl/min, […]
Details: both partners purified

B1: recombinant human CD147 extracellular fragment (His-CD147) (domain or fragment)
chain: EPGTVFTTVEDLGSKILLTCSLNDSATEVTGHRWLKGGVVLKEDALPGQKTEFKVDSDDQWGEYSCVFLPEPMGTANIQLHGPPRVKAVKSSEHINEGETAMLVCKSESVPPVTDWAWYKITDSEDKALMNGSESRFFVSSSQGRSELHIENLNMEADPGQYRCNGTSSKGSDQAIITLRVRSHLAAL
  Kd: 185 nM
